Reference: patent US9486502B2, “Methods of administering interferon gamma to absorb fluid from the subretinal space” (The United States of America, as represented by the …, priority 2008, dated 2016)
“Also recorded” adds a separate entry of the source.

Legend:
[1] = system: hfRPE cells; assay: immunoblotting of JAK-STAT / MAP kinase signalling proteins in hfRPE; format: cell-based, human
Experimental: Immunoblotting was performed as previously described in Li, R. et al., 2007, Invest Ophthalmol Vis Sci, 48, 5722-5732, incorporated by reference in its entirety herein. Primary cultures of hfRPE and native human adult RPE cells were lysed using RIPA buffer (Sigma-Aldrich) supplemented with proteinase inhibitor cocktail (Roche). Total protein in the supernatant was measured (BCA™ protein assay, Pierce Biotechnology) and 20 µg of protein from cell lysate supernatants was electrophoresed on a 4-12% gradient Bis-Tris NuPAGE gel (Invitrogen) under reduced or non-reduced conditions. Resolved proteins were transferred to nitrocellulose membranes (membranes and XCell II™ Blot Module, Invitrogen).
The membranes were incubated with mouse anti-human IFNγ R1 monoclonal antibody (R&D Systems), anti-human IFNγ R2 (Santa Cruz Biotechnology), anti-human IFNAR1, anti-human IFNAR2 (Abcam), anti-IRF1, anti-IRF2, anti-IRF8 (Santa Cruz Biotechnology) or anti-CFTR antibody 217 (Cystic Fibrosis Foundation Therapeutics Inc., Bethesda, Md.), after blocking non-specific binding ((StartingBlock™ T20 (TBS), Pierce Biotechnology). Membranes were then incubated with horseradish peroxidase (HRP) conjugated secondary antibody (Pierce Biotechnology) and visualized using Supersignal® West Dura Extended Duration Substrate (Pierce Biotechnology) and imaged using an Autochemie™ system (UVP, Upland, Calif.). The antibody-specific bands for IRF-1, IRF-2, ICSBP (IRF-8) and GAPDH were around 91 kDa, […], respectively.
For phosphorylation studies, cells were starved for 24 hours in serum-free medium (“SFM,” MEM-α modification medium containing non-essential amino acids and Glutamine-Penicillin-Streptomycin). Cells were treated with IFNγ (5-50 ng/ml) in SFM at various time points at 37° C. and lysed with RIPA buffer supplemented with proteinase inhibitor cocktail (Roche) and Halt™ phosphatase inhibitor cocktail (Pierce Biotechnology). 40 μg of protein was electrophoresed. As in the immunoblotting experiments described above, except that the membranes were incubated with anti-phospho-p38 MAP kinase (Thr180/Tyr182), anti-p38 MAP kinase, anti-phospho-Stat1 (Tyr701), anti-phospho-Stat1 (Ser727) or anti-Stat1 antibodies, respectively (each from Cell signaling Technology, Danvers, Mass.). The antibody-specific bands for STAT1/phospho-STAT1 (Tyr701) were around 84 kDa. GAPDH was blotted together with anti-GAPDH antibody (Abcam) and used as loading control. Cyclohexamide (“CHX”; Sigma-Aldrich), a protein synthesis inhibitor, was used at 62 μM.
For CFTR immunoblotting analysis, confluent monolayers of hfRPE were homogenized on ice in isolation solution (250 mM Sucrose, 10 mM Tris-HCl, 10 mM MgCl2, 1 mM CaCl2, pH 7.4) supplemented with Halt™ protease inhibitor cocktail, EDTA-free. Nuclei and intact cells were removed with centrifugation (900×g for 10 minutes at 4° C., followed by centrifugation at 10,000×g for 5 minutes). Crude plasma membrane proteins were collected after centrifugation at 100,000×g for 1 hour at 4° C.

[2] = system: rat RPE; assay: in vivo retinal re-attachment assay (OCT)
Experimental: All animal experiments were conducted in compliance with the ARVO Statement for the use of Animals in Ophthalmic and Vision Research, and the protocol was approved by the Animal Care and Use Committee of the National Institutes of Health. The procedures have been described in detail in Maminishkis, A., et al., Invest Ophthalmol Vis Sci, 2006, 47, 3612-3624, incorporated by reference in its entirety herein. Briefly, retinal detachments were created in long-Evans rats by injecting 0.5 to 3 μl of modified phosphate-buffered saline (MPBS) Ringer's solution into the sub-retinal space (SRS), which separates the photoreceptor outer segments and the apical membrane of the RPE. In the control portion of each experiment (at 0-70 minutes after creation of the retinal detachment), the rate of change of bleb volume was measured. The control period of “constant” volume was defined by JV≦2 μl hr cm over at least 40 minutes. Any control injections that exceeded this threshold rate were rejected from subsequent analysis.
IFNγ was dissolved in MPBS, mixed with Celluvisc® solution (1:1) and applied as eye-drops (0.4 mL). Optical coherence tomography (OCT) imaging (Institute of Applied Physics, Russian Academy of Science, Nizhniy Novgorod, Russia) was used to measure the time course of the detachment volume change.
A previously tested in vivo rodent model of retinal detachment was used to measure the effect of IFNγ on re-absorption following retinal detachment, as described in Example 11 and in Maminishkis, A., et al., Invest Ophthalmol Vis Sci, 2002, 43, 3555-3566, incorporated herein by reference in its entirety. Initial detachment was created by injecting approximately 1 μl of osmotically-balanced, modified phosphate-buffered saline (MPBS) Ringer's solution into the extracellular space, i.e. the sub-retinal space (SRS). After stabilization of the detachment, IFNγ (40 μl of 100 ng/ml) was added to the anterior surface of the eye via eye drops (Celluvisc®). A series of 3D OCT images were recorded at different time points.

B1: IFNγ: pleiotropic cytokine produced by T- and NK-cells; obtained from Peprotech (protein, UniProt P01579 24-161, looked up)
Interferon gamma: QDPYVKEAENLKKYFNAGHSDVADNGTLFLGILKNWKEESDRKIMQSQIVSFYFKLFKNFKDDQSIQKSVETIKEDMNVKFFNSNKKKRDDFEKLTNYSVTDLNVQRKAIHELIQVMAELSPAAKTGKRKRSQMLFRG
B1 was tested, and the STAT1 tyrosine phosphorylation ([1]; IFNγ 5 ng/ml, 15 minutes) was “tyrosine phosphorylated”, the IRF-1 protein ([1]; IFNγ 4 hours) was “activated; also recorded: significantly increased” and the IRF-2 protein ([1]; IFNγ 4 hours) was “unaffected; also recorded: no effect”. For the same molecule, the “IRF-8 (ICSBP) protein” value ([1]; IFNγ-treated hfRPE) was “below the detection limit; also recorded: no detectable change”, the “effect on CFTR protein level” value ([1]; IFNγ-treated hfRPE, not statistically significant) was “small decrease” and the STAT1 protein signal ([1]; after IFNγ treatment) was “significantly increased; also recorded: significantly up-regulated”. The “effect on JNK or P44/P42 phosphorylation” value ([1]; all six time points tested) was “no effect”, the “period over which IFNγ-induced phosphorylation of STAT1 was observed” value ([1]; hfRPE) was 2 to 48 h and the “time to IFNγ-induced phosphorylation of P38 MAPK” value ([1]; hfRPE, serum starved 24 hours) was 2 to 5 min. The “JV (fluid transport rate out of the retinal detachment)” value ([2]; IFNγ eye drops on anterior surface, t=0 to 40 minutes, FIG. 23B/E) was 12 μl·cm^−2·hr^−1, the “time in which rate of fluid absorption from subretinal space was significantly increased” value ([2]; IFNγ on anterior surface of the eye) was “less than 30 minutes” and the “detachment size (volume)” value ([2]; IFNγ on anterior surface, 40 or 54 minutes) was “decrease in detachment size”.
